From patent US20180051033, “INHIBITORS OF LATE SV40 FACTOR (LSF) AS CANCER CHEMOTHERAPEUTICS” (TRUSTEES OF BOSTON UNIVERSITY, published 2018)

Biological target: T1, LSF (TFCP2) (Homo sapiens, UniProt Q12800 SEQ:1-502)
T1 sequence: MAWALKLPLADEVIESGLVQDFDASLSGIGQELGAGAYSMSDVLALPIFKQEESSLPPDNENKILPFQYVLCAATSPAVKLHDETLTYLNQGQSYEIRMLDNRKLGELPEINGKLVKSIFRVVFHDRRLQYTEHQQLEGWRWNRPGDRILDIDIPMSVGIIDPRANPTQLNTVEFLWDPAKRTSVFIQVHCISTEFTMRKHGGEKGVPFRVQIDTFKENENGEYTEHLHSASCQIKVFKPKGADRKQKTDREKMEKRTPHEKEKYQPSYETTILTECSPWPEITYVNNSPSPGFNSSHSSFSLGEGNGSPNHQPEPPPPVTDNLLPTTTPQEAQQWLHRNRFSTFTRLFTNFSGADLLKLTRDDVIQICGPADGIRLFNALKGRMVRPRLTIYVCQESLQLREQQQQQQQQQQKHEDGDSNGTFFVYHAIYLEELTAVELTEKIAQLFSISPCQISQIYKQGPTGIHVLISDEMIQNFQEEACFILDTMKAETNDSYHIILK
Assay: EMSA; 40 mM KCl, 15 mM HEPES pH 7.9, 1 mM EDTA, 0.5 mM DTT, 5% glycerol, poly d(I-C), 30 C; FQI1 enhances binding at low and inhibits at higher concentration
Conditions: chain copies: 4 stated (tetrameric on DNA); label: 32P (radiolabelled)
Protocol: LSF was translated in vitro as previously described¹⁶ for use in EMSAs. Protein was preincubated with inhibitor or DMSO and then incubated with 0.5 μg poly d(I-C) for 15 min at 4° C. in 40 mM KCl, 15 mM HEPES pH 7.9, 1 mM EDTA, 0.5 mM DTT, 5% glycerol. Finally, radiolabelled double-stranded DNA ([…]—SEQ ID NO: 5- and its complement) were added for a 30-min incubation at 30° C. Results were visualized using a PhosphorImager and quantified using ImageQuant software.

B1: LSF EMSA site (dsDNA)
DNA 1: TGGCTGGTTATGGCTGGTCAGACTAG
DNA 2: CTAGTCTGACCAGCCATAACCAGCCA
binding result: binds
